Source: patent publication US20210032353A1 (NATIONAL HEALTH RESEARCH INSTITUTES, published 2021)
Values belong to the binder of their own block, whether it stands above or below them.

Experiments:
[1] = molecular target: T1, R2-IgD4-5 (human, UniProt P35968); assay: cell-based competitive ELISA: R2C9-11 absorbed with the soluble domains, then bound to fixed 293T/VEGFR2 cells, OD405
T1 construct: recombinant fragment; also called immunoglobin-like domains 4-5 of VEGFR2
Experimental: The optimal concentration of R2C7-1 and R2C9-11 mAbs (200 μg/mL and 50 μg/mL, respectively) were absorbed with the designated doses of the individual immunoglobin-like domains of VEGFR2 (R2-IgDs) antigens. After, the fixed 293T/VEGFR2 cells were incubated with the absorbed antibodies at 37° C. for 30 min. The bound antibodies were probed with goat-anti-mouse IgG conjugated with HRP, visualized by addition of ABTS, and measured at OD₄₀₅ using the SpectraMax microplate reader. Data are represented as means±S.D. of the percentage of isotype control (CTL) in triplicate. The potential epitope locations of R2C7-1 (upper) and R2C9-11 (lower) on the VEGFR2 antigen are indicated by black lines spanning IgD6 and IgD7 in the schematics.
To define the recognition epitopes of R2C7-1 and R2C9-11 antibodies, cell-based competitive enzyme-linked immunosorbent assay (ELISA) was performed. HEK293T/VEGFR2 transfectants (5 X×10⁴/well) were coated and fixed on 96-well plates. The optimal concentrations, the highest concentration of the log phase, of R2C7-1 and R2C9-11 antibodies for binding to the cells, were determined using a standard ELISA procedure (data not shown). […]
The epitopes of R2C7-1 and R2C9-11 anti-VEGFR2 antibodies were determined by cell-based competitive ELISA. […]

[2] = molecular target: T2, R3-IgD4 (human, UniProt P35916); assay: cell-based competitive ELISA: R2C7-1 absorbed with the soluble domain, then bound to 293T/VEGFR3 cells, OD405
T2 construct: recombinant fragment; also called immunoglobin-like domain 4 of VEGFR3
T2 sequence (receptor fragment, looked up): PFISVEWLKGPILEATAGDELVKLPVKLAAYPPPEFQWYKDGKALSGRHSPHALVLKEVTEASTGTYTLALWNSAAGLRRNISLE
Experimental: (§1) Panel A, Cell-based competitive. ELISA. HEK293T cells expressing VEGFR3 (293T/VEGFR3) were coated in 96-well plates. The optimal concentrations of R2C7-1 and R2C9-11 mAbs were determined as described previously (data now shown). The optimal concentrations of R2C7-1 and R2C9-11 mAbs were absorbed with the designed doses of the individual immunoglobin-like domains of VEGFR3 (R3-IgDs) antigens, as indicated. The bound antibodies were immune-probed with secondary antibody conjugated with HRP, visualized by addition of ABTS, and measured at OD₄₀₅ using a microplate reader (SpectraMax). Data are represented as means±S.D. of percentage of isotype control (CTL) in triplicate. The epitope locations of R2C7-1 and R2C9-11 on the VEGFR3 antigen are indicated by the black lines spanning IgD6 in the schematics. Panel B, Native gel electrophoresis. The whole extracellular domain (R3-IgD1-7), domain 3-4 (R3-IgD3-4) and domain 6-7 (R3-IgD6-7) were constructed, expressed in the E. coli, and purified using the anti-Myc affinity purification system. The purity and molecular weight of each recombinant protein were visualized with a standard Western blot using anti-Myc antibody as probe (left). The binding of R2C7-1 and R2C9-11 to the VEGFR3 truncated antigens was evaluated with native gel electrophoresis to confirm the epitopes of R2C7-1 and R2C9-11 mAbs (middle and right, respectively).
(§2) The same methodology was adopted to define the epitopes of the antibodies on VEGFR3. To determine the optimal concentrations of the antibodies for VEGFR3, HEK293T/VEGFR3 transfectants were used as targets (data not shown). Subsequently, the antibodies with optimal concentrations were absorbed with individual recombinant extracellular domains of VEGFR3 (R3-IgDs) for competing the binding epitopes. Similarly, their major epitopes were both located in IgD6, but not in IgD7, of VEGFR3. To conform this finding, Western blotting analysis of different recombinant IgD proteins was carried out using native gel electrophoresis.

[3] = molecular target: T3, VEGFR3 IgD5 (individual recombinant immunoglobin-like domain 5 of VEGFR3) (UniProt P35916 422-552, limits assumed); assay: as above
T3 construct: domain: IgD5
T3 sequence (looked up): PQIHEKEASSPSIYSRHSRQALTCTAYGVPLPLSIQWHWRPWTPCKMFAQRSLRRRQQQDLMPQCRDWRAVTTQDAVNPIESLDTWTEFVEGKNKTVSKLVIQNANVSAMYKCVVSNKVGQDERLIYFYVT
Experimental: as §1, §2

[4] = molecular target: T4, VEGFR3 IgD3-4 (UniProt P35916 219-415, limits assumed); assay: native gel electrophoresis and immunoblot
T4 construct: domain: IgD3-4; also called VEGFR3-ED Ig D3-4-myc; not shown: myc tag (pCMV6-XL6-myc vector)
T4 sequence (looked up): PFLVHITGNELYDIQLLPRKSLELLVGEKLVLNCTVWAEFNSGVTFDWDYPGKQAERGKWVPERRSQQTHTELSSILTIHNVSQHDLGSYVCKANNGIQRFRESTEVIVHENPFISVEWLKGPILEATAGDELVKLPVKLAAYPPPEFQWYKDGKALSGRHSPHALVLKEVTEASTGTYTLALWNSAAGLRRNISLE

[5] = molecular target: T5, VEGFR3 (Flt-4)-IgD 6-7 (UniProt P35916 555-764, limits assumed); assay: Biacore; antibody as flow analyte, Flt 4-IgD6-7 as ligand
T5 construct: domain: IgD6-7; also called R3-IgD6-7; VEGFR3-ED Ig D6-7-myc; not shown: myc tag (pCMV6-XL6-myc vector)
T5 sequence (looked up): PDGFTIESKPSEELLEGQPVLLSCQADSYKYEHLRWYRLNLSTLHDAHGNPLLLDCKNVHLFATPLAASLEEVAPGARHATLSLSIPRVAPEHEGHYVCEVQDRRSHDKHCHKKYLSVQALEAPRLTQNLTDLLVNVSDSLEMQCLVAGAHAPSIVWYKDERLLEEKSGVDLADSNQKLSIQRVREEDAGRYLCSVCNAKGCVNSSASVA

T1 sequence (P35968 328-548 limits assumed): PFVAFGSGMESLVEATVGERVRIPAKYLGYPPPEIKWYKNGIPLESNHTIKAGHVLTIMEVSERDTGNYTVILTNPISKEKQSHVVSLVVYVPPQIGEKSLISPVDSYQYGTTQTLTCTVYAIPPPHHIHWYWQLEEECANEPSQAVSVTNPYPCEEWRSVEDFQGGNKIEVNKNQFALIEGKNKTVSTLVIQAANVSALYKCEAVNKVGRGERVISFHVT

B1: R2C9-11 monoclonal antibody (antibody, V domains shown)
VH: QVQLQQPGAELVKPGASVKLSCKASGYTFTSYWMHWVKQRPGQGLEWIGEINPSNGRTNYNEKFKSKATLTVDKSSSTAYMQLSSLTSEDSAVYYCANLYFDVWGAGTTVTVSS
VL: DIVMTQSPSSLSVSAGEKVTMSCKSSQNLLNSGNQKYYLAWYQQKPGQPPKLLIYGASIRESGVPDRFIGSGSGTDFTLTISSVQAEDLAVYFCQSDHSYPYTFGGGTKLEIK
notes: Mouse monoclonal antibody purified from hybridoma supernatant; An IgG2a isotype antibody served as its control; also called R2C9-11 mAb
binding result [1]: no binding (tested: 20 (unit not printed on the sheet))

binding result [4]: no binding
koff [5]: 0.0037 s⁻¹
kon [5]: 280000 M⁻¹ s⁻¹
B2: R2C7-1 monoclonal antibody (antibody, V domains shown)
VH: EVQLQQSGPELVKPGASVKISCKASGYSFTDYFINWVIQRHGKSLEWVGRINPYNGGSFYNQKFKDKATLTVDKSSNIAHMELRSLASEDSAIYYCARSGGNGYDYWGQGTTLTVSS
VL: DIVMTQAAPSVPVIPGESVSISCRSSKSLLHSNGNTYLYWFLQRPGQSPQLLIYRMSNLASGVPDRFSGSGSGTAFTLRISRVEAEDVGVYYCMQHLEYPYTFGGGTKVEIK
notes: Mouse monoclonal antibody purified from hybridoma supernatant; An IgG2a isotype antibody served as its control; also called R2C7-1 mAb
binding result [2]: no binding (tested: 10 (unit not printed on the sheet))
binding result [3]: no binding (tested: 10 (unit not printed on the sheet))
